# Measured values reported in patent publication US20070059756A1, “Immunointeractive molecules and their uses in treating subjects suffering from Hev b 5 allergies” (priority 1999, published 2007).
# B1: rHev b 5/MBP: recombinant Hev b 5 as maltose binding protein (MBP) fusion protein (protein)
# chain: ASVEVESAATALPKNETPEVTKAEETKTEEPAAPPASEQETADATPEKEEPTAAPAEPEAPAPETEKAEEVEKIEKTEEPAPEADQTTPEEKPAEPEPVAEEEPKHETKETETEAPAAPAEGEKPAEEEKPITEAAETATTEVPVEKTEE
# modifications: left off: large carriers; small tags and cut ends
# Key:
# [1] = test system: latex specific T cell lines; test: Oligoclonal T cell proliferation assay (3H-thymidine incorporation); format: cell-based, human; conditions: for Oligoclonal proliferative response: antigen 10 μg/ml, 4 day cultures
# Method: (§1) Latex specific T cell lines were isolated using our well established methods for the generation of allergen specific oligoclonal T cell populations (O'Hehir et al., 1987). An initial primary culture was performed for each patient to determine the optimal concentration of LAL for stimulation. For this, peripheral blood mononuclear cells (PBMC) separated from heparinised venous blood by density centrifugation (2×10^5/well) were stimulated with LAL over a concentration range 0.03 to 100 μg/ml, with control cultures of PBMC alone or stimulated with tetanus toxoid. All cultures were maintained in complete medium (RPMI-1640, Gibco Life Technologies supplemented with 2 mmol/L L-glutamine, 100 IU/ml penicillin-streptomycin and 5% screened, heat inactivated human AB serum [Sigma]). […] Therefore, to generate T cell lines, PBMC (2.5×10^6/well) were stimulated for 1 week with LAL at a concentration of 20 μg/ml in 24-well tissue culture plates (Costar, USA). After 7 days, lymphoblasts (1×10^6/well) were restimulated for one week with LAL at a concentration of 20 μg/ml in the presence of an equal number of irradiated (3000 rad) autologous PBMC as antigen presenting cells (APC). On days 2 and 4, cultures were supplemented with Lymphocult-T (5% v/v; Biotest Folex, Germany) and fresh medium. At the end of the second week, lymphoblasts were restimulated for one week with rhev b 5/MBP at a concentration of 20 μg/ml as described above. Oligoclonal T cells were recovered, washed and tested in proliferation and cytokine assays (as described below) either fresh or after cryopreservation in liquid nitrogen. We have previously shown that CD4^+ T cells are preferentially expanded in these cultures.
# Oligoclonal T cell blasts (5×10^4) were incubated in 96-well round bottom plates (Linbro, ICN Biomedicals, USA) in triplicate with equal numbers of irradiated APC in the presence of LAL at concentrations ranging from 0.03-100 μg/ml, rHev b 5/MBP (10 and 20 μg/ml), MBP (10 and 20 μg/ml), overlapping peptides of the Hev b 5 sequence (10 and 30 μg/ml), Lymphocult-T (10 IU/ml) or PHA (3 μg/ml). Cultures of T cells and APC in the absence of antigen, T cells alone and APC alone in the absence of antigen were included as controls. After 72 hours cultures were pulsed with 1 μCi of ^3H-thymidine (^3HTdR; Du Pont, NEN) and harvested 12-16 hours later. Proliferation as correlated with ^3HTdR incorporation was measured by liquid scintillation spectroscopy. Results are expressed as mean counts per minute (cpm) for triplicate cultures with standard deviation (SD; ±20% for all experiments).
# PBMC = test: Primary culture PBMC proliferation (polyclonal response); format: cell-based, human; conditions: primary cultures of PBMC
# Method: as §1, with “At the end of the second week, lymphoblasts were restimulated for one week with rhev b 5/MBP at a concentration of 20 μg/ml as described above. Oligoclonal T cells were recovered, washed and tested in proliferation and cytokine assays (as described below) either fresh or after cryopreservation in liquid nitrogen. We have previously shown that CD4^+ T cells are preferentially expanded in these cultures.” left out
# [2] = test system: house dust mite specific three-week T cell line; format: cell-based
# Method: Mitogenicity of latex antigens was excluded by testing the ability of LAL, rHev b 5/mBP and Hev b 5 peptides to stimulate a house dust mite specific three-week T cell line. No reactivity to latex allergens was observed (data not shown). Toxicity was assessed by coculturing the same antigens with house dust mite specific T cells in the presence of Lymphocult-T at 10 IU/ml.
# serum IgE = test: Dot immunoblot of patient serum IgE reactivity; format: binding, human; conditions: sera of latex allergic patients 1-6
# Method: Patient serum IgE reactivity to latex allergens was analysed by dot immunoblots. LAL (25 μg), rHev b 5/MBP (7 μg) and MBP (4.5 μg) were applied side by side on a nitrocellulose membrane (Schleichner and Schuell, Germany) in a 5 μl volume and allowed to soak in. The amount of MBP was estimated to be equivalent to that in the rHev b 5/MBP aliquot. The membrane was then blocked, incubated in patient sera and IgE binding detected according to our established protocols (Suphioglu et al., 1993). Briefly, the blots were blocked in 10% w/v skim milk powder in PBS and washed once in PBS containing 0.2% v/v Tween 20 and twice in PBS alone. Blots were then incubated in patients' sera (diluted 1:4 in PBS/0.5% BSA) overnight at room temperature with shaking before washing as described above. Finally, IgE antibody binding was detected by incubation in rabbit anti-human IgE (Dako, Denmark) followed by horse radish peroxidase-labelled anti-rabbit antibodies (Promega, USA), washing in between, and developing in the substrate 4-chloro-1-napthol (Sigma) after the final wash.
# [3] = Immune response of mice immunised with rHev b 5/MBP (serum ELISA); format: in vivo, BALB/c mice; conditions: 20 μg/injection IP; serum ELISA against rHev b 5/MBP, MBP and NAL
# Method: Monoclonal antibody production was carried out based on the method of Köhler and Milstein (Köhler et al., 1975) according to established protocols (Goding, 1996). Six to 8 week old female BALB/c mice were immunised intraperitoneally (IP) with 20 μg/injection of rHev b 5/MBP diluted in 200 μl of phosphate buffered saline (PBS). The first injection was given with an equal volume (200 μl) of Complete Freund's Adjuvant (Sigma, USA), and the second with 200 μl of Incomplete Freund's Adjuvant (Sigma, USA). The subsequent 4 immunisations were given in phosphate buffered saline (PBS) alone. The initial 2 immunisations were given at a 2 weekly interval; the remainder were given at monthly intervals, with 100 μl of whole blood being taken before the first immunisation and at 5 days following each immunisation (except for the first) to monitor the immune response. The blood was then centrifuged, the serum removed, and aliquotted at −20° C. for later analysis using enzyme linked immunosorbent assay (ELISA) as below. The final booster immunisation of 20 μg of rHev b 5/MBP in 200 μl PBS was given IP 3 days before the mouse was humanly killed and the spleen aseptically removed, macerated and then fused with 10^7 murine myeloma cells (X-63.Ag8 cell line, generous gift of Professor Jim Goding). […] Colour development was then observed and the plate read at […]. […]
molecule,measurement,setting,value
B1,Oligoclonal proliferative response,[1]; P1 T cell line,9.0 counts per minute × 10^−3
same,Oligoclonal proliferative response,[1]; P2 T cell line,5.7 counts per minute × 10^−3
same,oligoclonal proliferative response (in words),[1]; three-week latex specific T cell lines,significantly higher than those of MBP alone
same,polyclonal PBMC response (in words),PBMC,considerably less than those to LAL
same,mitogenicity: stimulation of house dust mite specific T cell line,[2],No reactivity
same,serum IgE reactivity,serum IgE,"patients 1, 2, 3, 4 and 5 showed IgE reactivity"
same,immune response of immunised mice,[3],strong polyclonal immune response
